GeoMean, MFI and MFI relative to background data for one substance are collected here from patent publication US20180171024A1.

Assay [1] addresses HLA-A2 on cells (tumor cell lines, normal primary cells, PBMCs) (human). In words: flow cytometry, SW620 cells.
Assay [2] shares this target. In words: flow cytometry, renal epithelial cells 4100-2, 10 µg/ml. (In general: In flow cytometry, cells or beads pass a laser one at a time.)
Assay [3] shares this target. Kind of assay: flow cytometry, astrocytes 1800, 10 µg/ml.
For assay [4] the target is unchanged. In words: flow cytometry, Caco2 cells.
The target in assay [5] is HLA-A2/TyrD-S8 on T2 cells (human). Kind of assay: flow cytometry, T2 cells loaded with TyrD S8 [..], 10 µg/ml.
The target in assay [6] is HLA-A2/Gag on T2 cells (human). Kind of assay: flow cytometry, T2 cells loaded with GAG peptide.
The target in assay [7] is HLA-A2 on cells (tumor cell lines, normal primary cells, PBMCs) (human). In words: flow cytometry, PANC-1 pancreatic carcinoma cells, 10 µg/ml.
For assay [8], the target named is HLA-A2/PAP 112-120 complex on T2 cells (human). Kind of assay: flow cytometry, T2 cells loaded with PAP112 [..], 10 µg/ml.
Assay [9] has as its target HLA-A2 on cells (tumor cell lines, normal primary cells, PBMCs) (human). Kind of assay: flow cytometry, SK-Mel5 melanoma cells.
Assay [10] addresses HLA-A2/TyrD-S2 on T2 cells (human). Kind of assay: flow cytometry, T2 cells loaded with TyrD S2 [..], 10 µg/ml.
Assay [11] has as its target HLA-A2 on cells (tumor cell lines, normal primary cells, PBMCs) (human). Kind of assay: flow cytometry, HEP-G2 cells, 10 µg/ml.
Assay [12] deals with HLA-A2/GPLD1 on T2 cells (human). Kind of assay: flow cytometry, T2 cells loaded with GPLD1 [..], 10 µg/ml.
Assay [13] deals with HLA-A2/TyrD-S18 on T2 cells (human). Kind of assay: flow cytometry, T2 cells loaded with TyrD-S18 [..], 10 µg/ml.
Assay [14] addresses HLA-A2/TyrD-S10 on T2 cells (human). Kind of assay: flow cytometry, T2 cells loaded with TyrD S10 [..], 10 µg/ml.
Assay [15] deals with HLA-A2 on cells (tumor cell lines, normal primary cells, PBMCs) (human). In words: flow cytometry, astrocytes #1800, 10 µg/ml.
Assay [16] concerns the target HLA-A2/TyrN on T2 cells (human). Kind of assay: flow cytometry, T2 cells loaded with TyrN [..], 10 µg/ml.
The target of assay [17] is HLA-A2 on cells (tumor cell lines, normal primary cells, PBMCs) (human). Kind of assay: flow cytometry, renal epithelial cells 4120, 10 µg/ml.

Consider BB7.2 (antibody), for which the GeoMean in [1] was 369; in assay [4], 123. Moreover, the MFI in assay [2] worked out at 564; in assay [3], 590; in assay [6] it was 1840; in [7], 242; in assay [9], 76; in [11], 315. In addition, the MFI came to 751 in [15] and 889 in assay [17]. For the same substance, the MFI relative to background in [5] worked out at 539; in [8] it was 1170; in assay [10] it was 929; in [12], 364; in assay [13] it was 838; in [14], 620. Besides, the MFI relative to background in [16] came to 483.
